IC50 of inhibition by IL-18BP of IFNγ stimulation in NK92 cells and IC50 of IL-18BP-mediated inhibition of IFNγ secretion by NK92 cells data for 1 substance are collected here from patent publication US20250186597A1, “TARGETED IMMUNE ACTIVATION WITH IL-18 IMMUNOCYTOKINES” (BRIGHT PEAK THERAPEUTICS AG, priority 2023, published 2025).

Test in all cases: cell-based or functional assay
Test [1] has as its target IL-18 polypeptide of SEQ ID NO: 55 (K53A, T63A, C38S, C68S, C76S, C127S, K70C) (human) (UniProt Q14116).
Test [2] has as its target IL-18 polypeptide C154 (V11I, E31A, D37A, C38A, K53A, C76A, C127A) (human) (UniProt Q14116).
Test [3] concerns the target IL-18 polypeptide C155 (V11I, C38A, D40A, K53A, C76A, C127A) (human) (UniProt Q14116).
For test [4], the target named is IL-18 polypeptide of SEQ ID NO: 57 (E6K, C38S, K53A) (human) (UniProt Q14116).
The target of test [5] is IL-18 polypeptide of SEQ ID NO: 54 (E06K, K53A, C38S, C68S, C76S, C127S, K70C) (human) (UniProt Q14116).
Test [6] concerns the target IL-18 polypeptide C147 (V11I, C38A, K53A, D54A, C76A, C127A) (human) (UniProt Q14116).
Test [7] deals with IL-18 polypeptide of SEQ ID NO: 36 (K53A) (human) (UniProt Q14116).
The target of test [8] is IL-18 polypeptide C160 (V11I, C38A, K53A, C76A, D110A, C127A) (human) (UniProt Q14116).
In test [9] the target is IL-18 polypeptide of SEQ ID NO: 35 (Y01G, F02A, E06K, M51G, K53A, D54A, S55A, T63A) (human) (UniProt Q14116).
Test [10] has as its target IL-18 polypeptide of SEQ ID NO: 38 (E06K) (human) (UniProt Q14116).
Test [11] concerns the target IL-18 polypeptide C150 (V11I, T34A, C38A, K53A, C76A, C127A) (human) (UniProt Q14116).
Test [12] addresses IL-18 polypeptide of SEQ ID NO: 43 (E06K, K53A, S55A, Y01G) (human) (UniProt Q14116).
The target of test [13] is IL-18 polypeptide C144 (V11I, C38A, K53A, T63A, C76A, C127A) (human) (UniProt Q14116).
Test [14] addresses IL-18 polypeptide of SEQ ID NO: 52 (E06K, T63A) (human) (UniProt Q14116).
Test [15] deals with IL-18 polypeptide C158 (V11I, C38A, K53A, C76A, G108A, C127A) (human) (UniProt Q14116).
The target of test [16] is IL-18 polypeptide C145 (V11I, C38A, K53A, S55A, C76A, C127A) (human) (UniProt Q14116).
Test [17] concerns the target IL-18 polypeptide of SEQ ID NO: 41 (K53A, S55A) (human) (UniProt Q14116).
Test [18] addresses IL-18 polypeptide of SEQ ID NO: 31 (C38A, C76A, C127A) (human) (UniProt Q14116).
Test [19] has as its target IL-18 polypeptide C156 (V11I, C38A, N41A, K53A, C76A, C127A) (human) (UniProt Q14116).
For test [20], the target named is IL-18 polypeptide of SEQ ID NO: 6 (E6K, V11I, C38A, K53A, T63A, C68A, C76A, D98C, C127A) (human) (UniProt Q14116).
Test [21] has as its target IL-18 polypeptide of SEQ ID NO: 34 (E06K, K53A, S55A) (human) (UniProt Q14116).
For test [22], the target named is native IL-18 wild-type (SEQ ID NO: 1) (human) (UniProt Q14116).

With “Fc fused human IL-18 binding protein isoform a (IL-18BPa; R&D systems, Cat #119-BP) (from UniProt O95998 31-194) (Fc fusion)”, the IC50 of inhibition by IL-18BP of IFNγ stimulation in NK92 cells is more than 1000 nM in test [1]; 3.71 nM in test [2]; 3.23 nM in test [3]; 146 nM in test [4]; 23.5 nM in test [5]; 47.6 nM in [6]. In addition, the IC50 of inhibition by IL-18BP of IFNγ stimulation in NK92 cells is 27.3 nM in [7]; 3.18 nM in [8]; more than 55 nM in [9]; 7.79 nM in test [10]; 21.3 nM in test [11]; 27.8 nM in test [12]. The IC50 of inhibition by IL-18BP of IFNγ stimulation in NK92 cells came to 7.52 nM in test [13]; 47.1 nM in test [14]; 3.98 nM in test [15]; 10.2 nM in [16]; 37.3 nM in [17]; 0.681 nM in test [19]. In addition, the IC50 of inhibition by IL-18BP of IFNγ stimulation in NK92 cells in [20] amounted to 5.85 nM; in test [21], 229 nM; in test [22], 1.47 nM. The figures for the IC50 of IL-18BP-mediated inhibition of IFNγ secretion by NK92 cells in [18] and in [22] were 0.282 nM and 0.781 nM, respectively.
